Measurements published in paper PMC11585597.

Experiments:
[1] = molecular target: StrepII-∆N-term DERA (Chloroflexi bacterium GWB2_54_36); test: pull-down + SEC
[2] = molecular target: HIS-∆N-term DERA (deoxyribose 5-phosphate aldolase of the SPU6 BMC locus, N-terminal extension deleted) (Chloroflexi bacterium GWB2_54_36); test: SEC

Substance	stoichiometry N [1]	subunits of each protein in the complex [1]	stoichiometry N [2]
HIS-RPI (ribose 5-phosphate isomerase B family protein of the SPU6 BMC locus, full length) (enzyme)	1	> 2	–
HIS-∆N-term DERA (deoxyribose 5-phosphate aldolase of the SPU6 BMC locus, N-terminal extension deleted) (domain or fragment)	–	–	2
